B2: mouse CD47 on the surface of mouse red blood cells and CT26.CL25 cells (receptor, UniProt Q61735 19-303, looked up)
chain: QLLFSNVNSIEFTSCNETVVIPCIVRNVEAQSTEEMFVKWKLNKSYIFIYDGNKNSTTTDQNFTSAKISVSDLINGIASLKMDKRDAMVGNYTCEVTELSREGKTVIELKNRTVSWFSPNEKILIVIFPILAILLFWGKFGILTLKYKSSHTNKRIILLLVAGLVLTVIVVVGAILLIPGEKPVKNASGLGLIVISTGILILLQYNVFMTAFGMTSFTIAILITQVLGYVLALVGLCLCIMACEPVHGPLLISGLGIIALAELLGLVYMKFVASNQRTIQPPRNR
notes: whole, on cells; also called CD47 present on the surface of the CT26.CL25 cells

For experiment [1], the target named is B2. Put plainly: flow cytometry of CT26.CL25 cells after incubation with mouse RBC loaded with 200 pmol labeled vSIRPα. The protocol:
(§1) Each cell line, grown independently in a cell culture dish, was detached from the dish with trypsin-EDTA. The cells from each dish were then washed with DPBS, counted, and diluted to 10⁵ cells/100 μl PBS. 4 μl of the FAM-vSIRPα-siRNA/RBC resuspension (totaling 10³ RBC and 100 pmol of the vSIRPα-siRNA) was mixed, independently, with each 100 μl dilution of CT26.CL25 cells and CaCO2 cells. Each mixture was incubated for 30 minutes at room temperature (20-25° C.).
vSIRPα labeled with Cy5.5 was tested for its ability to be transferred from RBC to CD47 present on the surface of CT26.CL25 cells. Experiments were carried out as in Example 2, except that 200 pmol of the labeled vSIRPα, rather than 500 pmol of conjugate, was incubated with the RBC.
(Flow cytometry measures light scatter and fluorescence of single cells or particles in a stream.)

For experiment [2], the target named is T1, Murine TSP-1 (7859-TH, R&D Systems) labeled with Cy5.5 (murine, UniProt P35441 19-1170, Cy5.5 label (site not stated)).
T1 construct: also called Cy5.5-labeled murine thrombospondin-1; Cy5.5 labeled TSP-1
T1 sequence (P35441 19-1170 limits assumed): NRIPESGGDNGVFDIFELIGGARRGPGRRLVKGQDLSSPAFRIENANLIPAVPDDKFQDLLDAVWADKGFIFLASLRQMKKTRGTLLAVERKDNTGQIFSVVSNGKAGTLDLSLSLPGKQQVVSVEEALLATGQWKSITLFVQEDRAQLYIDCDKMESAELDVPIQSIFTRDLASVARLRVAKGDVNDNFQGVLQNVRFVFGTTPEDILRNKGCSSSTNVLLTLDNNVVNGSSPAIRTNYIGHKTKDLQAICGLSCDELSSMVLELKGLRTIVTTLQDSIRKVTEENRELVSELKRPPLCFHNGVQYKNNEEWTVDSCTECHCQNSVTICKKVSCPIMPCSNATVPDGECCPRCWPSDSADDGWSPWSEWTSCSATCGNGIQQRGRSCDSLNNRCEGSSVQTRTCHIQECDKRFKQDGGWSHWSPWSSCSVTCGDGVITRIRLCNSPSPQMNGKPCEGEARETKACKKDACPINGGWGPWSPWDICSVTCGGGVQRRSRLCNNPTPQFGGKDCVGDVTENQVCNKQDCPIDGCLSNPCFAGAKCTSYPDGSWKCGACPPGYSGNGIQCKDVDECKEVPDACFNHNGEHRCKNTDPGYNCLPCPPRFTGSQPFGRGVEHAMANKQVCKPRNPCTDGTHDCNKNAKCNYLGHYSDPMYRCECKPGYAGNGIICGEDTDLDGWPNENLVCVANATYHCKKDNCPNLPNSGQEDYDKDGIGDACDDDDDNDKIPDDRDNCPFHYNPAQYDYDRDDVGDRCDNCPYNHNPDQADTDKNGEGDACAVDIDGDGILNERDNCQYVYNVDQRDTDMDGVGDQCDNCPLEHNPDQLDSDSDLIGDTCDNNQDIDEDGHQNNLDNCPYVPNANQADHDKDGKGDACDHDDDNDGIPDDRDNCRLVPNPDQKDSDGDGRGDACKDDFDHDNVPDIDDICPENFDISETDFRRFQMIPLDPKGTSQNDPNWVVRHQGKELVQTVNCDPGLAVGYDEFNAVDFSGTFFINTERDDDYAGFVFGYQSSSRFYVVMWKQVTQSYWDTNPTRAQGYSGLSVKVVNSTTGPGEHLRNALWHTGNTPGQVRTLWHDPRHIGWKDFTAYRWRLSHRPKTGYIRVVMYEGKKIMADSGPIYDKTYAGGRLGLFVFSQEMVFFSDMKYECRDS
Put plainly: flow cytometry of CT26.CL25 cells after incubation with mouse RBC loaded with 5 µg labeled murine TSP-1. As for the experimental part: as §1
Murine TSP-1 (7859-TH, R&D Systems) labeled with Cy5.5 was tested for its ability to be transferred from RBC to CD47 present on the surface of CT26.CL25 cells. Experiments were carried out as in Example 2, except that 5 μg of Cy5.5 labeled TSP-1, rather than 500 pmol of conjugate, was incubated with the RBC.

B1: vSIRPα labeled with Cy5.5 (receptor)
chain: EEELQIIQPDKSVLVAAGETATLRCTITSLFPVGPIQWFRGAGPGRVLIYNQRQGPFPRVTTVSDTTKRNNMDFSIRIGNITPADAGTYYCIKFRKGSPDDVEFKSGAGTELSVRAKP
modifications: Cy5.5 label (site not stated)
notes: also called Cy5.5-labeled vSIRPα
For B1, in experiment [1], the binding result is “binds”.
Consider B2, for which the binding result in experiment [2] is reported as “binds”.

(Values after patent US20250122508A1 (K2B THERAPEUTICS, published 2025).)
